For the data set, the system named is Bacillus subtilis. Put plainly: cleaved RNA product abundance (RNA/gDNA barcode ratio) relative to median wild-type variant (ratio to wild type); higher = more accumulation of the downstream cleavage product. The settings on record: cleavage site: cggR-gapA (positions -7 to +36 mutated). Put shortly: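 Reporter mRNAs (truncated aprE or tetM) carrying barcoded, mutagenized RNase Y cleavage-site windows were made from oligos with a 9% error rate and integrated into the B. subtilis chromosome. Cultures grew in LB at 37°C from OD600 0.0003 to 0.3. Cleaved RNA was gel-selected, reverse transcribed and barcode-sequenced alongside genomic DNA barcodes, with UMI collapsing. Cleaved product abundance is the RNA:gDNA barcode ratio per variant, scaled to the median wild-type variant.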

Where [1] appears, read: experiment (reporter, strain, medium): exp 4a: truncated aprE reporter, strain BJT201 with 2% xylose (RNase J1 expressed).
Setting [2] is: experiment (reporter, strain, medium): exp 2b: truncated aprE reporter, strain BJT200.

As to “ACAGACGAAGGAGCCGCAAAGAAGTTATTAAGGGTTGAATAATCCCTTAATATAAATATCTCTCACTTATTTAAA”, the “cleaved RNA product abundance” value under setting [1] is 0.608.
Regarding “ACAGACGAAGGAGCCGCAAAGAAGTTATTAAGGGTTGAATAATCCGTCAATATAAATATCTCTCACTTATTTAAA”, the “cleaved RNA product abundance” value under setting [1] worked out at 0.187.
For the sequence “ACAGACGAAGGAGCCGCAAAGAAGTTATTAAGGGTTGAATAATCCTTCAATATAAATATCTCTCACTTATTTAAA”, the “cleaved RNA product abundance” value under setting [1] was 0.358.
On to “ACAGACGAAGGAGCCGCAAAGAAGTTATTAAGGGTTGAATAATCTCTCAATATAAATATCTCTCACTTATTTAAA”, for which, under setting [1], the “cleaved RNA product abundance” value was determined as 0.244.
Regarding “ACAGACGAAGGAGCCGCAAAGAAGTTATTAAGGGTTGAATAATTCCTCAATATAAATATCTCTCACTTATTTAAA”, under setting [1], the “cleaved RNA product abundance” value amounted to 0.1.
For the sequence “ACAGACGAAGGAGCCGCAAAGAAGTTATTAAGGGTTGAATCATCCCTCAATATAAATATCTCTCACTTATTTAAA”, under setting [2], the “cleaved RNA product abundance” value was determined as 0.5.
In the case of “ACAGACGAAGGAGCCGCAAAGAAGTTATTAAGGGTTGAATGATCCCTCAATATAAATATCTCTCACTTATTTAAA”, the “cleaved RNA product abundance” value under setting [2] was found to be 0.298.
For “ACAGACGAAGGAGCCGCAAAGAAGTTATTAAGGGTTGAGTAATCCCTCAATATAAATATCTCTCACTTATTTAAA”, the “cleaved RNA product abundance” value under setting [1] is 0.375.
Regarding “ACAGACGAAGGAGCCGCAAAGAAGTTATTAAGGGTTGATTAATCCCTCAATATAAATATCTCTCACTTATTTAAA”, the “cleaved RNA product abundance” value is 0.287 under setting [2] and 0.409 under setting [1].
With “ACAGACGAAGGAGCCGCAAAGAAGTTATTAAGGGTTGTATAATCCCTCAATATAAATATCTCTCACTTATTTAAA”, the “cleaved RNA product abundance” value under setting [1] came out at 0.309.
Regarding “ACAGACGAAGGAGCCGCAAAGAAGTTATTAAGGGTTTAATAATCCCTCAATATAAATATCTCTCACTTATTTAAA”, the “cleaved RNA product abundance” value under setting [2] was determined as 0.63 and the “cleaved RNA product abundance” value under setting [1] stood at 0.667.
On to “ACAGACGAAGGAGCCGCAAAGAAGTTATTAAGGTAAGAATAATCCCTCAATATAAATATCTCTCACTTATTTAAA”, for which the “cleaved RNA product abundance” value under setting [1] was 0.0843.
Consider “ACAGACGAAGGAGCCGCAAAGAAGTTATTAAGGTACGAATAATCCCTCAATATAAATATCTCTCACTTATTTAAA”, for which the “cleaved RNA product abundance” value runs as follows: under setting [2], 0.0971; under setting [1], 0.106.
As for “ACAGACGAAGGAGCCGCAAAGAAGTTATTAAGGTAGGAATAATCCCTCAATATAAATATCTCTCACTTATTTAAA”, the “cleaved RNA product abundance” value turned out to be 0.145 under setting [2] and 0.159 under setting [1].
On the same counts, the results for “ACAGACGAAGGAGCCGCAAAGAAGTTATTAAGGTATAAATAATCCCTCAATATAAATATCTCTCACTTATTTAAA” are 0.0876 and 0.112.
As to “ACAGACGAAGGAGCCGCAAAGAAGTTATTAAGGTATAAATAATCCCTCAATATAAATGTCTCTCACTTATTTAAA”, the “cleaved RNA product abundance” value under setting [1] worked out at 0.11.
Turning to “ACAGACGAAGGAGCCGCAAAGAAGTTATTAAGGTATCAATAATCCCTCAATATAAATATCTCTCACTTATTTAAA”, the “cleaved RNA product abundance” value by setting is: under setting [2], 0.106; under setting [1], 0.125.
Turning to “ACAGACGAAGGAGCCGCAAAGAAGTTATTAAGGTATGAAAAATCCCTCAATATAAATATCTCTCACTTATTTAAA”, the “cleaved RNA product abundance” value was found to be 0.0949 under setting [2] and 0.145 under setting [1].
Consider “ACAGACGAAGGAGCCGCAAAGAAGTTATTAAGGTATGAATAAACCCTCAATATAAATATCTCTCACTTATTTAAA”, for which the “cleaved RNA product abundance” value came to 0.0972 under setting [2] and 0.124 under setting [1].
Taken in the same sequence, the figures for “ACAGACGAAGGAGCCGCAAAGAAGTTATTAAGGTATGAATAACCCCTCAATATAAATATCTCTCACTTATTTAAA” were 0.0833 and 0.0618.
For the sequence “ACAGACGAAGGAGCCGCAAAGAAGTTATTAAGGTATGAATAAGCCCTCAATATAAATATCTCTCACTTATTTAAA”, the “cleaved RNA product abundance” value under setting [1] turned out to be 0.13.
Consider “ACAGACGAAGGAGCCGCAAAGAAGTTATTAAGGTATGAATAATACCTCAATATAAATATCTCTCACTTATTTAAA”, for which the “cleaved RNA product abundance” value came to 1 under setting [2] and 1.16 under setting [1].
In the case of “ACAGACGAAGGAGCCGCAAAGAAGTTATTAAGGTATGAATAATCACTCAATATAAATATCTCTCACTTATTTAAA”, under setting [1], the “cleaved RNA product abundance” value was found to be 0.142.
Take “ACAGACGAAGGAGCCGCAAAGAAGTTATTAAGGTATGAATAATCCATCAATATAAATATCTCTCACTTATTTAAA”: the “cleaved RNA product abundance” value runs as follows: under setting [2], 0.125; under setting [1], 0.145.
For “ACAGACGAAGGAGCCGCAAAGAAGTTATTAAGGTATGAATAATCCCACAATATAAATATCTCTCACTTATTTAAA”, the “cleaved RNA product abundance” value by setting is: under setting [2], 0.0792; under setting [1], 0.0978.
Regarding “ACAGACGAAGGAGCCGCAAAGAAGTTATTAAGGTATGAATAATCCCCCAATATAAATATCTCTCACTTATTTAAA”, the “cleaved RNA product abundance” value under setting [1] turned out to be 0.141.
The same measure, in the same setting: the value for “ACAGACGAAGGAGCCGCAAAGAAGTTATTAAGGTATGAATAATCCCGCAATATAAATATCTCTCACTTATTTAAA” was 0.0533.
With “ACAGACGAAGGAGCCGCAAAGAAGTTATTAAGGTATGAATAATCCCTAAATATAAATATCTCTCACTTATTTAAA”, the “cleaved RNA product abundance” value under setting [2] was found to be 0.109 and the “cleaved RNA product abundance” value under setting [1] came out at 0.168.
With “ACAGACGAAGGAGCCGCAAAGAAGTTATTAAGGTATGAATAATCCCTCAAAATAAATATCTCTCACTTATTTAAA”, the “cleaved RNA product abundance” value runs as follows: under setting [2], 0.108; under setting [1], 0.115.
With “ACAGACGAAGGAGCCGCAAAGAAGTTATTAAGGTATGAATAATCCCTCAACATAAATATCTCTCACTTATTTAAA”, the “cleaved RNA product abundance” value under setting [1] came to 0.11.
Consider “ACAGACGAAGGAGCCGCAAAGAAGTTATTAAGGTATGAATAATCCCTCAAGATAAATATCTCTCACTTATTTAAA”, for which the “cleaved RNA product abundance” value reads like this: under setting [2], 0.111; under setting [1], 0.151.
Taken in the same sequence, the figures for “ACAGACGAAGGAGCCGCAAAGAAGTTATTAAGGTATGAATAATCCCTCAATAAAAATATCTCTCACTTATTTAAA” were 0.119 and 0.0613.
For the sequence “ACAGACGAAGGAGCCGCAAAGAAGTTATTAAGGTATGAATAATCCCTCAATACAAATATCTCTCACTTATTTAAA”, under setting [2], the “cleaved RNA product abundance” value turned out to be 0.0986.
Consider “ACAGACGAAGGAGCCGCAAAGAAGTTATTAAGGTATGAATAATCCCTCAATAGAAATATCTCTCACTTATTTAAA”, for which the “cleaved RNA product abundance” value under setting [1] stood at 0.0725.
With “ACAGACGAAGGAGCCGCAAAGAAGTTATTAAGGTATGAATAATCCCTCAATATAAAAATCTCTCACTTATTTAAA”, the “cleaved RNA product abundance” value by setting is: under setting [2], 0.107; under setting [1], 0.153.
As to “ACAGACGAAGGAGCCGCAAAGAAGTTATTAAGGTATGAATAATCCCTCAATATAAACATCTCTCACTTATTTAAA”, the “cleaved RNA product abundance” value under setting [1] is 0.124.
With “ACAGACGAAGGAGCCGCAAAGAAGTTATTAAGGTATGAATAATCCCTCAATATAAATATCTCTCACTTATTTAAA”, the “cleaved RNA product abundance” value stood at 0.107 under setting [2]; 0.142 under setting [1]; 0.127 (experiment (reporter, strain, medium): exp 6: tetM reporter, strain 168).
As to “ACAGACGAAGGAGCCGCAAAGAAGTTATTAAGGTATGAATAATCCCTCAATATAAATATTTCTCACTTATTTAAA”, the “cleaved RNA product abundance” value under setting [1] was 0.121.
For “ACAGACGAAGGAGCCGCAAAGAAGTTATTAAGGTATGAATAATCCCTCAATATAAATCTCTCTCACTTATTTAAA”, the “cleaved RNA product abundance” value under setting [2] was determined as 0.0874.
Take “ACAGACGAAGGAGCCGCAAAGAAGTTATTAAGGTATGAATAATCCCTCAATATAAATGTCTCTCACTTATTTAAA”: the “cleaved RNA product abundance” value under setting [1] was 0.107.
“ACAGACGAAGGAGCCGCAAAGAAGTTATTAAGGTATGAATAATCCCTCAATATAAATTTCTCTCACTTATTTAAA”: under setting [1], the “cleaved RNA product abundance” value came to 0.17.
Still for that read-out and setting: the value for “ACAGACGAAGGAGCCGCAAAGAAGTTATTAAGGTATGAATAATCCCTCAATATAACTATCTCTCACTTATTTAAA” was 0.102; that for “ACAGACGAAGGAGCCGCAAAGAAGTTATTAAGGTATGAATAATCCCTCAATATAATTATCTCTCACTTATTTAAA” was 0.0923.
On to “ACAGACGAAGGAGCCGCAAAGAAGTTATTAAGGTATGAATAATCCCTCAATATAGATATCTCTCACTTATTTAAA”, for which the “cleaved RNA product abundance” value under setting [1] was found to be 0.08.
As to “ACAGACGAAGGAGCCGCAAAGAAGTTATTAAGGTATGAATAATCCCTCAATATATATATCTCTCACTTATTTAAA”, the “cleaved RNA product abundance” value by setting is: under setting [2], 0.121; under setting [1], 0.0867.
Consider “ACAGACGAAGGAGCCGCAAAGAAGTTATTAAGGTATGAATAATCCCTCAATATTAATATCTCTCACTTATTTAAA”, for which, under setting [1], the “cleaved RNA product abundance” value was determined as 0.0645.
For the sequence “ACAGACGAAGGAGCCGCAAAGAAGTTATTAAGGTATGAATAATCCCTCAATCTAAATATCTCTCACTTATTTAAA”, under setting [1], the “cleaved RNA product abundance” value was determined as 0.0855.
For the sequence “ACAGACGAAGGAGCCGCAAAGAAGTTATTAAGGTATGAATAATCCCTCAATGTAAATATCTCTCACTTATTTAAA”, the “cleaved RNA product abundance” value is 0.094 under setting [2] and 0.0511 under setting [1].
On to “ACAGACGAAGGAGCCGCAAAGAAGTTATTAAGGTATGAATAATCCCTCAATTTAAATATCTCTCACTTATTTAAA”, for which the “cleaved RNA product abundance” value was 0.0856 under setting [2] and 0.0555 under setting [1].
For the sequence “ACAGACGAAGGAGCCGCAAAGAAGTTATTAAGGTATGAATAATCCCTCAGTATAAATATCTCTCACTTATTTAAA”, the “cleaved RNA product abundance” value under setting [1] stood at 0.1.
Take “ACAGACGAAGGAGCCGCAAAGAAGTTATTAAGGTATGAATAATCCCTCATTATAAATATCTCTCACTTATTTAAA”: the “cleaved RNA product abundance” value under setting [1] was 0.107.
As to “ACAGACGAAGGAGCCGCAAAGAAGTTATTAAGGTATGAATAATCCCTCCATATAAATATCTCTCACTTATTTAAA”, the “cleaved RNA product abundance” value under setting [1] turned out to be 0.0967.
As for “ACAGACGAAGGAGCCGCAAAGAAGTTATTAAGGTATGAATAATCCCTCGATATAAATATCTCTCACTTATTTAAA”, the “cleaved RNA product abundance” value by setting is: under setting [2], 0.0823; under setting [1], 0.0744.

The record behind these values is the supplement of paper PMC11780869.
